Measured values taken from US20230416362A1 (INDUSTRIAL TECHNOLOGY RESEARCH INSTITUTE, published 2023).
Where a chain is given by its changes, count along the chain named.

What was measured:
[1] = target: T1, human TIGIT expressed on cells (TIGIT/Jurkat cells; MJ[G11] cells; PBMC T cells) (human, UniProt Q495A1 22-244); assay: flow cytometry on TIGIT/Jurkat cells
T1 construct: The cell line is named under assay; also called human TIGIT-expressing Jurkat cells
T1 sequence: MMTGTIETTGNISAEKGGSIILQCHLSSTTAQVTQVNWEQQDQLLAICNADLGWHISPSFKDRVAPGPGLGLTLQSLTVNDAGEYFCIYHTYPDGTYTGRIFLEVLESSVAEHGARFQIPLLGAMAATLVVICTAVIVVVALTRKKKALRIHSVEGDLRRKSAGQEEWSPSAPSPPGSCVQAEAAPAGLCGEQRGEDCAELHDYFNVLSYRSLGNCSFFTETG
Procedure: Sequential dilutions of Protein A column-purified 7D4, 2C9, and 3A9 antibodies were separately incubated with 5×10⁵ of human TIGIT-expressing Jurkat cells (TIGIT/Jurkat) in 50 μl of FACS buffer (0.2% BSA in Dulbecco's phosphate-buffered saline (DPBS) containing 0.09% sodium azide) on ice for 1 hour. After washing, the cells were stained with anti-mouse IgG conjugated with PE dyes and antibody binding strength was analyzed by flow cytometry.

[2] = target: T2, recombinant mouse TIGIT IgV domain (mouse, UniProt P86176 29-145); assay: ELISA on coated recombinant TIGIT IgV domain
T2 construct: Made in NS0 cells, purified on Strep-Tactin XT; Biotinylated for phage panning; also called biotinylated mouse TIGIT IgV domain
T2 sequence: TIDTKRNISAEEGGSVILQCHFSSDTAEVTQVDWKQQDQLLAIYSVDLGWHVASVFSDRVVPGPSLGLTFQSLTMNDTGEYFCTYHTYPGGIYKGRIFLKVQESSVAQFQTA
Procedure: To assess species cross-reactivity of anti-TIGIT antibodies 7D4, 2C9, and 3A9, ELISA binding assays to human, cynomolgus monkey, and mouse TIGIT were performed. 1 μg/ml each of human, cyno (R&D Systems, Inc., #9380-TG), and mouse TIGIT in 50 μl of DPBS were coated on 96-well plates at 4° C. for overnight. After washing the plates with phosphate-buffered saline containing 0.05% of Tween 20 (PBST), a sequential dilution of 7D4, 2C9, and 3A9 antibodies was added separately and the plates were incubated at 37° C. for 1 hour. After washing the plates three times with PBST, the plates were incubated with an anti-mouse Fey polyclonal antibody conjugated with horseradish peroxidase (HRP) at 37° C. for 1 hour. After washing the plates three times with PBST, 100 μl of 3,3′,5,5′-tetra-methylbenzidine (TMB) substrate (Thermo Fisher Scientific, #34018) were added into each well. After 5 to 10 min of color development, 50 μl of stop solution (2 N of HCl) were added into each well and plates were read by spectrophotometer at a wavelength of 450 nm.

[3] = target: T3, TIGIT-biotin (TIGIT:CD155 Homogeneous Assay Kit, #72029) (human, UniProt Q495A1 22-141, limits assumed, biotin (site not stated)); assay: AlphaLISA competition: TIGIT-biotin with antibody, then histidine-tagged CD155 as competitor
T3 construct: Kit reagent; also called human TIGIT
T3 chain: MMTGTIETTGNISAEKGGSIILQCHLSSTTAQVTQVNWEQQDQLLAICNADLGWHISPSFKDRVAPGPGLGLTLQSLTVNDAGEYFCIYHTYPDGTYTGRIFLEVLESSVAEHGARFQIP
Procedure: To evaluate inhibition of binding of TIGIT to CD155 by anti-TIGIT antibodies, AlphaLISA assays were performed using a TIGIT:CD155 Homogeneous Assay Kit (PBS Biosciences, #72029). Aliquots (6 μl) of solution containing TIGIT-biotin (final concentration 0.2 ng/μl) and 4-fold serial dilution of the test antibodies (final volume 2 μl) were added into a 384-well plate. The plates were covered with a lid and incubated at room temperature for 30 min. Then, 2 μl of histidine-tagged CD155 were added (final concentration 0.05 ng/μl) into each well and incubated at room temperature for 60 min. Finally, aliquots (5 μl) of streptavidin-conjugated donor beads (final concentration 10 μg/ml) and 5 μl of anti-His tag acceptor beads (final concentration 20 μg/ml) were added and the plate was incubated at room temperature for 30 min in the dark. AlphaLISA signals were measured on an EnSpire Alpha 2390 (Perkin-Elmer Life Sciences). 15A6 (U.S. Pat. No. 10,189,902) and MBSA43 (Thermo Fisher Scientific, #16-9500-82) were used as reference antibodies.
These antibodies were selected for further functional studies.

[4] = target: T1, human TIGIT expressed on cells …; assay: flow cytometry competition on MJ[G11] cells; competitor DyLight 650-CD155-human Fc at 1.5 µg/ml
Excerpt: (§1) Anti-TIGIT antibodies, including hz7D4, and reference antibodies (15A6 and 1D3) were used to compete with CD155 for binding to cells expressing human TIGIT. MJ[G11] (American Type Culture Collection (ATCC), CRL-8294) is a CD3+CD4+T lymphoma cell line carrying human T cell leukemia virus (HTLV-I). MJ[G11] cells were characterized by immunostaining with regulatory T cell phenotypic antibody markers, including CD4, CD25, CD127, and FoxP3, and found to be a regulatory T cell-like cell line (FIG. 9A). Moreover, MJ[G11] cells express human TIGIT constitutively, as shown by immunostaining with PE-conjugated anti-human TIGIT, MBSA43 antibody (FIG. 9B). A sequential 3-fold dilution of anti-TIGIT antibodies was added to 5×10⁵ of human TIGIT-expressing Jurkat cells or 3×10⁵ of MJ[G11] cells in 50 μl FACS buffer (0.2% BSA in DPBS containing 0.09% sodium azide) and incubated on ice for 30 min. Then, 10 μl of DyLight 650-conjugated CD155-human Fc fusion protein were added to the cells, to reach a final concentration of 1 μg/ml for human TIGIT-Jurkat cells and 1.5 μg/ml for MJ[G11] cells, and incubated for 30 min at 4° C. Cells were washed and analyzed by a FACSCalibur cytometer (Becton Dickinson). IC₅₀ values were calculated based on normalized median fluorescence intensity (MFI) values. […]

[5] = target: T1, human TIGIT expressed on cells …; assay: flow cytometry competition on TIGIT/Jurkat cells; competitor DyLight 650-CD155-human Fc at 1 µg/ml
Excerpt: as §1

cyno TIGIT IgV domain = target: T4, cyno TIGIT IgV domain (cynomolgus monkey); assay: phage display panning on biotinylated cyno TIGIT IgV domain
T4 construct: Biotinylated for phage panning; also called biotinylated cyno TIGIT IgV domain; cynomolgus monkey TIGIT
Procedure: (§2) The phages were captured by incubation with 50 μl of M280 streptavidin magnetic beads (Thermo Fisher Scientific) for 15 min. Non-specific phages were eliminated by ten washes with PBS/0.1% Tween-20, followed by 10 washes with PBS for 5 min each. Bound phages were eluted with 0.1 M glycine (pH 2.0), neutralized with 1 M Tris-HCl (pH 8.0) and re-infected into log-phase TG1 cells. In the second panning round, phages (10⁹ cfu) were used against 0.1 nM of the biotinylated cyno TIGIT IgV domain.
(§3) The nucleotide sequences of the phage clones that bind to both human and cyno TIGIT IgV domains were determined. All heavy chain CDR3 (HCDR3) clones contain the wild type HCDR3 amino acid sequence of […] (SEQ ID NO: 3). Two light chain CDR3 (LCDR3) clones screened by the light chain library, designated 1A11 and 1E3, contain LCDR3 amino acid sequences of […] (SEQ ID NO: 23) and […] (SEQ ID NO: 24), respectively.

[6] = target: T5, recombinant human TIGIT IgV domain (human, UniProt Q495A1 22-141, limits assumed); assay: phage display panning on biotinylated human TIGIT IgV domain
T5 construct: Made in NS0 or Expi293F cells, purified on Strep-Tactin XT; Biotinylated for phage panning; also called human TIGIT IgV protein; native (Nat) form human TIGIT protein
T5 chain: T3 chain
Procedure: as §2, §3

T4 sequence (chain, as listed by the source limits assumed): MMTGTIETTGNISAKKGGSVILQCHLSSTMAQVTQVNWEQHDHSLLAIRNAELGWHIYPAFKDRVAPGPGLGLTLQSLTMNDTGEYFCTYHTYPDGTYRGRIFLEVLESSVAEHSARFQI

B1: 7D4 (antibody, V domains shown)
VH: QVQLKHSGAELVRPGTSVKMSCKASGYTFTNYWIGWAKQRPGHGLEWIGDIYPGSSFTNSNEKFKGKATLTADKSSSTAYMQFSSLTSEDSAIYYCAKLGRGYWYFDVWGTGTSVTVSA
VL: DIVLTQSPAIMSASLGEEITLTCSASSSVSYIHWYQQKSGTSPKLLIYTTSNLASGVPSRFSGSGSGTFYSLTISSVEAEDAADYYCHQWSRYPTFGGGTKLEIK
notes: Mouse monoclonal antibody from hybridoma clone 7D4, Protein A purified; also called anti-TIGIT monoclonal antibody 7D4; parental mouse 7D4 antibody
**Q.** Which Kd [1] does the source give for B1 here?
**A.** 0.27 nM

**Q.** What about the EC50 [2] of the same binder?
**A.** 10.5 nM

**Q.** What about the IC50 [3] of the same binder?
**A.** 0.32 nM

B2: hz7D4 hIgG1 (antibody, V domains shown)
VH: EVQLVQSGGGLVKPGGSLRLSCAASGYTFTNYWIGWVRQTPGKGLEWVGDIYPGSSFTNSNEKFKGRFTISADKSKNTAYLQMNSLRAEDTAVYYCARLGRGYWYFDVWGQGTLVTVSS
VL: DIVLTQSPATLSASLGERATLSCSASSSVSYIHWYQQKPGQAPKLLIYTTSNLASGVPSRFSGSGSGTDFTLTISSLEAEDFATYYCHQWSRYPTFGGGTKLEIK
notes: Human IgG1 (vector pFUSE-CHIg-hIG1) with human kappa constant region, made in CHO-S cells; also called humanized 7D4; hz7D4 human IgG1
**Q.** Which IC50 [4] does the source give for B2 here?
**A.** 0.3 nM

**Q.** And the IC50 [5]?
**A.** 0.2 nM

B3: 1A11 scFv phage clone (scFv, V domains shown)
VH: B2 VH
VL: B2 VL with H88Q, Q89L, W90F, S91R, R92S, Y93G, P94S, T95A
**Q.** What does the source list for B3?
**A.** binding result (cyno TIGIT IgV domain): binds; binding result [6]: binds
